Target: human IL-17 receptor (IL-17R) on primary human bronchial epithelial (HBE) cells (human) (UniProt Q96F46)
Experiment: cell-based or functional assay

| inhibition of DEFB104 mRNA upregulation by 100 ng/ml IL-17A in HBE cells after preincubation with 2 ug/ml anti-IL-17R antibody | inhibition of DEFB104 mRNA upregulation by 100 ng/ml IL-17F in HBE cells after preincubation with 2 ug/ml anti-IL-17R antibody | Substance |
| --- | --- | --- |
| 62.5% |  | IL-17A (R&D Systems) (from UniProt Q16552 20-155) (ligand) |
|  | 77.6% | human IL-17F (R&D Systems) (from UniProt Q96PD4 31-163) (ligand) |
